Results on 12 sequences are retold here after the Immune Epitope Database (IEDB).

A value given as a limit tells only on which side of the number the result lay.

Some targets named below: HLA-A*68:02; HLA-A*02:06; HLA-A*02:01; HLA-B*51:01; HLA-B*53:01; HLA-B*35:01; HLA-B*07:02; HLA-B*54:01.
What all share (test): IEDB peptide-MHC binding, purified MHC/competitive/radioactivity; filed as Kd, often an IC50 or EC50 that approximates it; ≥ and ≤ were set here for values at or beyond the usual limits of such assays
Another test has as its target HLA-A*11:01. To be noted: source organism: Vaccinia virus WR.
The next test concerns the target HLA-A*02:02. To be noted: source organism: Vaccinia virus WR.
The target in another test is HLA-A*31:01. Particulars: source organism: Vaccinia virus WR.
A further test has as its target HLA-A*02:03. Particulars: source organism: Vaccinia virus WR.
The target of the next test is HLA-A*03:01. Particulars: source organism: Vaccinia virus WR.
A further test concerns the target HLA-A*68:01. To be noted: source organism: Vaccinia virus WR.
For another test, the target named is HLA-A*33:01. Particulars: source organism: Vaccinia virus WR.
[1] abbreviates: source organism: Mammarenavirus machupoense.
The mark [2] stands for this setting: source organism: Vaccinia virus WR.
[3] abbreviates: source organism: SARS coronavirus Tor2.

With EMRQKHSQAV, the equilibrium dissociation constant (Kd) – broadly, a measure of binding affinity in units of concentration – in the test with HLA-A*68:02 (source organism: Homo sapiens) is 0.512 µM; with HLA-A*02:06 (source organism: Homo sapiens), not below 72.5 µM; with HLA-A*02:01 (source organism: Homo sapiens), not below 33.9 µM.
In the case of VPINVAEAY, the equilibrium dissociation constant (Kd) with HLA-B*51:01 (setting [1]) was not below 57 µM; in the test with HLA-B*53:01 (setting [1]), 0.202 µM; with HLA-B*35:01 (setting [1]), 0.00628 µM; in the test with HLA-B*07:02 (setting [1]), 13.7 µM; with HLA-B*54:01 (setting [1]), not below 50.5 µM.
As for SFSLESDSIK, the Kd in the test with HLA-A*11:01 was 5.91 µM; in the test with HLA-B*51:01 (setting [2]) it was not below 69.6 µM; with HLA-A*02:02, not below 70 µM; with HLA-A*31:01, 2.66 µM; with HLA-A*02:03, not below 70.4 µM; with HLA-B*53:01 (setting [2]) it was not below 69.9 µM. Moreover, the Kd is not below 69.8 µM in the test with HLA-A*68:02 (setting [2]); not below 59.7 µM with HLA-A*02:06 (setting [2]); not below 69.9 µM in the test with HLA-B*35:01 (setting [2]); not below 22 µM with HLA-A*03:01; 7.76 µM with HLA-A*68:01; not below 69.4 µM in the test with HLA-A*02:01 (setting [2]). Besides, the figures for the dissociation constant (Kd) with HLA-B*07:02 (setting [2]), with HLA-A*33:01 and in the test with HLA-B*54:01 (setting [2]) were not below 69.6 µM, not below 70 µM and not below 69.9 µM, respectively.
For the sequence NPDQNTFPNI, the Kd with HLA-B*51:01 (setting [2]) was not below 33.6 µM; with HLA-B*53:01 (setting [2]), 3.74 µM; with HLA-B*35:01 (setting [2]), not below 69.9 µM; with HLA-B*07:02 (setting [2]), not below 69.6 µM; with HLA-B*54:01 (setting [2]), not below 69.9 µM.
Regarding APAHVSTIGV, the Kd with HLA-B*51:01 (setting [3]) amounted to 12.5 µM; in the test with HLA-B*53:01 (setting [3]) it was 17 µM; in the test with HLA-B*35:01 (setting [3]), 10.5 µM; with HLA-B*07:02 (setting [3]) it was 0.0344 µM; in the test with HLA-B*54:01 (setting [3]), 3.11 µM.
In the case of KPDHDGNTPL, the Kd was not below 69.6 µM with HLA-B*51:01 (setting [2]); 7.08 µM with HLA-B*53:01 (setting [2]); 3.28 µM with HLA-B*35:01 (setting [2]); 0.031 µM with HLA-B*07:02 (setting [2]); not below 41 µM in the test with HLA-B*54:01 (setting [2]).
LPNVDLTTM: the dissociation constant Kd in the test with HLA-B*51:01 (setting [2]) worked out at 0.0622 µM; with HLA-B*53:01 (setting [2]) it was 0.000222 µM; with HLA-B*35:01 (setting [2]) it was 0.000159 µM; with HLA-B*07:02 (setting [2]), 0.0549 µM; with HLA-B*54:01 (setting [2]), 0.717 µM.
As to RPPLNRNYV, the Kd with HLA-B*51:01 (setting [3]) is 10.3 µM; with HLA-B*53:01 (setting [3]) it was not below 78.2 µM; with HLA-B*35:01 (setting [3]), not below 21.4 µM; with HLA-B*07:02 (setting [3]), 0.061 µM; with HLA-B*54:01 (setting [3]), 0.661 µM.
Take VPTNDHIPVV: the equilibrium dissociation constant (Kd) was 0.0509 µM with HLA-B*51:01 (setting [2]); 12 µM with HLA-B*53:01 (setting [2]); 10.6 µM with HLA-B*35:01 (setting [2]); 0.17 µM with HLA-B*07:02 (setting [2]); 0.000661 µM in the test with HLA-B*54:01 (setting [2]).
As to LMIFISSFLL, the dissociation constant (Kd) with HLA-A*11:01 was determined as 1.21 µM; in the test with HLA-B*51:01 (setting [2]), 1.6 µM; with HLA-A*02:02, 0.00293 µM; in the test with HLA-A*31:01, 0.284 µM; in the test with HLA-A*02:03, 0.0801 µM; with HLA-B*53:01 (setting [2]) it was 0.971 µM. Also, the Kd was 0.0733 µM with HLA-A*68:02 (setting [2]); 0.0764 µM with HLA-A*02:06 (setting [2]); not below 20.9 µM with HLA-B*35:01 (setting [2]); 0.42 µM in the test with HLA-A*03:01; 0.283 µM in the test with HLA-A*68:01; not below 27.2 µM with HLA-B*07:02 (setting [2]). Besides, the values for the Kd with HLA-A*33:01 and with HLA-B*54:01 (setting [2]) were 0.707 µM and 3.24 µM, respectively.
As for KPDGSDSMDV, the dissociation constant Kd with HLA-B*51:01 (setting [2]) was not below 69.6 µM; in the test with HLA-B*53:01 (setting [2]), not below 69.9 µM; with HLA-B*35:01 (setting [2]) it was not below 69.9 µM; with HLA-B*07:02 (setting [2]), 0.244 µM; in the test with HLA-B*54:01 (setting [2]), not below 69.9 µM.
Consider SPAHLINKLL, for which the dissociation constant Kd in the test with HLA-B*51:01 (setting [2]) was 5.34 µM; with HLA-B*53:01 (setting [2]), 6.85 µM; with HLA-B*35:01 (setting [2]), not below 51 µM; in the test with HLA-B*07:02 (setting [2]), 0.0266 µM; with HLA-B*54:01 (setting [2]), 2.96 µM.
